{"source": "patent US20120108504A1", "about": "(TEMPLE UNIVERSITY OF THE COMMONWEALTH SYSTEM OF HIGHER …, published 2012)", "molecular_target": "T1, leptin receptor (ObR) (human, UniProt P48357 22-1165)", "T1 sequence": "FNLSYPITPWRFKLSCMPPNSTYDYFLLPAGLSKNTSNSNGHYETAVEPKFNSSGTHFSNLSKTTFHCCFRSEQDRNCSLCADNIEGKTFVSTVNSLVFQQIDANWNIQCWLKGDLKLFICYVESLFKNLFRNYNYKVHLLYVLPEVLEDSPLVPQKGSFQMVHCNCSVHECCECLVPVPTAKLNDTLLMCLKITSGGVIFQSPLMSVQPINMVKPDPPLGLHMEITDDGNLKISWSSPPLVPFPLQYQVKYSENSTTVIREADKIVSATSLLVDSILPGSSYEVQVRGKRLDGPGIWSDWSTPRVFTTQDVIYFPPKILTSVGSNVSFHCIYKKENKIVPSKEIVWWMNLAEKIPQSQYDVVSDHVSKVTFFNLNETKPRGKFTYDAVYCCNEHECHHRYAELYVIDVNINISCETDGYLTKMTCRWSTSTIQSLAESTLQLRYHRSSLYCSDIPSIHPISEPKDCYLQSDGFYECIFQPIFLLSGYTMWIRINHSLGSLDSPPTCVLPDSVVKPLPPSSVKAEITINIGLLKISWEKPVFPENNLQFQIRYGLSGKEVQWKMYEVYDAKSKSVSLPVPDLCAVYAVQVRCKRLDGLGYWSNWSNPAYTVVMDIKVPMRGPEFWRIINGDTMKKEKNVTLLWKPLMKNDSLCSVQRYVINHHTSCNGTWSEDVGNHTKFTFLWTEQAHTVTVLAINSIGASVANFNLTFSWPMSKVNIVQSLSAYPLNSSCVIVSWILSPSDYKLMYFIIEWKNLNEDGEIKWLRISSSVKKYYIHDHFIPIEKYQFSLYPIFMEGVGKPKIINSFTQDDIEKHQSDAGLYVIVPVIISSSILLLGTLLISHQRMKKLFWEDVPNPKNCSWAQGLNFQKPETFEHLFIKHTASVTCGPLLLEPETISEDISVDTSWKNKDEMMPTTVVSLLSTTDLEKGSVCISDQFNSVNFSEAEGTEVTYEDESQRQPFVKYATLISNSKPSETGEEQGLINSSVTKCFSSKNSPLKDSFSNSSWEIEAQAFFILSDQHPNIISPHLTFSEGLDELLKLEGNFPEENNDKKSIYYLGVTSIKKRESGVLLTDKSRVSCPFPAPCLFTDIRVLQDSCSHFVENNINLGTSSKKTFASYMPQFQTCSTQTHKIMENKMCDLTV", "experiment": "cell-based or functional assay", "note": "Non-standard residues stand in square brackets, D forms with d. No end group written: not given here. *: point of attachment. αGalNAc = CC(=O)N[C@@H]1[C@@H](O)[C@@H](O)[C@@H](CO)O[C@@H]1*; Tyr(3,5-I2) = N[C@@H](Cc1cc(I)c(O)c(I)c1)C(=O)O; Ahx = NCCCCCC(=O)O", "data": [{"binder": "[Tyr(3,5-I2)]ST(αGalNAc)EVVALSR[Ahx]-NH2", "note": "[Compound (1) [Tyr(I2)-Ser-Thr(α-GalNAc)-Glu-Val-Val-Ala-Leu-Ser-Arg-AcpNH2]]", "values": [{"measurement": "EC50 (nM), proliferation of ObR-positive LN229 glioblastoma cells, no exogenous leptin", "result": "< 1", "unit": "nM"}, {"measurement": "IC50 (nM), inhibition of leptin-induced (12 nM leptin) proliferation of ObR-positive LN229 cells", "result": 100, "unit": "nM"}]}]}
